Data taken from patent publication US11840574B2, “Anti-DR5 antibody and use thereof” (DONG-A ST CO., LTD., priority 2017, dated 2023).
Values belong to the molecule of their own block, whether it stands above or below them.

What was measured:
caspase-3/7 [1] = assay: Intracellular caspase activity (Apo-ONE Caspase-3/7), Miapaca-2; format: cell-based, human; details: Miapaca-2, Ab alone or Ab linked, 4 hours
Method: (§1) In order to investigate the cell death mechanism thereof, the constructed antibodies were assayed for caspase activity. The activity of caspase-3/7 was measured using Apo-ONE® Homogeneous Caspase-3/7 Assay kit (Promega, U.S.A.). In this assay, the human colorectal cancer cell line Colo205 (ATCC, U.S.A.), the human pancreatic cancer cell line Miapaca-2 (ATCC, U.S.A.), and the lung cancer cell line H2122 (ATCC, U.S.A.) were employed. A suspension of each tumor cell line having a concentration of 1×10^5 cells/ml was plated at a volume of 50 μl per well into 96-well cell culture plates and cultured for 16-24 hours in a constant temperature and humidity chamber. The cells were treated with predetermined concentrations (0.01-10000 ng/ml) of the antibody alone (Ab alone) or in combination with a crosslinking antibody (anti-human Fc) (Serotec, U.S.A.) (Ab linked) and then cultured for 4 hours. […] When the reaction reached a predetermined level, fluorescence was read at 520 nm using a spectrophotometer (Molecular Device). Caspase activity was calculated as a fold increase of relative fluorescence units (RFU) of a test substance-treated group (treated RFU) to over the relative fluorescence units of a culture medium-treated group (untreated RFU) (Caspase activity=treated RFU/Untreated RFU). […]

Human DR5 [2] = target: T1, Human DR5 (Homo sapiens, UniProt O14763); assay: Binding affinity of antibody to human DR5 (BIAcore, CM5 chip); details: for Ka(1/Ms): association rate, Human DR5, 1:1 Langmuir binding model; for Kd: equilibrium dissociation constant, Human DR5
In short: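 Surface plasmon resonance was run with human DR5 coupled to a CM5 chip. IgG was injected as analyte at 2-fold dilutions from 5 nM to 0.156 nM. Association and dissociation rates were fitted to a 1:1 Langmuir model, and KD was taken as the ratio of the two rate constants.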

caspase-3/7 [3] = assay: Intracellular caspase activity (Apo-ONE Caspase-3/7), H2122; format: cell-based, human; details: H2122, Ab alone or Ab linked, 4 hours
Method: as §1

caspase-3/7 [4] = assay: Intracellular caspase activity (Apo-ONE Caspase-3/7), Colo205; format: cell-based, human; details: Colo205, Ab alone or Ab linked, 4 hours
Method: as §1

[5] = system: human pancreatic cancer cell line Panc-1; assay: Tumor cell death assay, co-treatment with gemcitabine, Panc-1; format: cell-based; details: Panc-1, gemcitabine 3 nM-300 nM, 48 to 72 hours
Method: (§2) Effects obtained from co-treatment with the above constructed antibody and gemcitabine were evaluated using in vitro tumor cell death assay.
(§3) The human pancreatic cancer cell lines Miapaca-2 (ATCC, U.S.A.) and Panc-1 (ATCC, U.S.A.) were each suspended at a density of 1×10^5 cells/ml. The suspensions were added in an amount of 50 μl to each well of 96-well cell culture plates and incubated for 16-24 hours in a constant temperature and humidity chamber. The cancer cell lines were treated with the anti-DR5 antibodies of the present disclosure including D0 in combination with certain concentrations (3 nM-300 nM) of gemcitabine and cultured for 48 to 72 hours. The cells were further incubated for 1 to 3 hours after addition of 10 μl of a resazurin solution (Invitrogen, U.S.A.) per well. When the reaction proceeded to a predetermined level, fluorescence was read at 590 nm using a spectrophotometer (Molecular Device). Cell viability was calculated as the percentage of relative fluorescence units (RFU) of a test substance-treated group (treated RFU) to relative fluorescence units of a culture medium-treated group (untreated RFU) (Cell viability (%)=treated RFU/Untreated RFU×100). The results are depicted in FIGS. 6a to 6r. Representative results are depicted in FIGS. 11a (Miapaca-2) and 11b (Panc-1). For comparison, the control antibody AP was treated in the same manner

[6] = system: human pancreatic cancer cell line Miapaca-2; assay: Tumor cell death assay, co-treatment with gemcitabine, Miapaca-2; format: cell-based; details: Miapaca-2, gemcitabine 3 nM-300 nM, 48 to 72 hours
Method: as §2, §3

[7] = Pharmacokinetics of antibody in nude mice (plasma ELISA); format: in vivo; details: intravenous, 10 mg/kg
Method: In order to examine in vivo kinetics of the antibodies constructed above, blood half-life was evaluated in mice. Antibodies were intravenously injected at doses of 1-10 mg/kg into nude mice. Blood was sampled from the orbital vein from 5 min to 14 days after injection. The blood collection was conducted using heparinized capillary tubes. Plasma obtained by centrifugation of the blood samples was diluted at certain ratios and used as samples for ELISA evaluation. Human DR5 diluted to a concentration of 10 ng/ml was plated at 100 μl per well onto 96-well immune plates (Nunc, U.S.A.) and adsorbed to the wells for 12-14 hours. The plates were washed three times with buffer solution containing 0.1% Tween 20 and blocked with buffer solution containing bovine serum albumin (Sigma, U.S.A.) at room temperature for 1 hour. After three rounds of washing with buffer solution, the plates were incubated with each of the mouse plasma dilutions and a serial dilution of standard substance at room temperature for 2 to 3 hours. After three washes with buffer solution, a 1:20000 dilution of an HRP-conjugated anti-human immunoglobulin Fc (Fc-HRP) antibody (Bethyl, U.S.A.) was added at a volume of 100 μl per well and incubated at room temperature for 1 hour. After washing three times, 100 μl of a TMB solution (Sigma, U.S.A.) was added to each well and allowed to react. When the color development reached a certain level, the reaction was terminated with 0.2 N sulfuric acid solution. Absorbance at 450 nm was measured using a spectrophotometer (Molecular Device, U.S.A.). The antibody concentration in each plasma sample was calculated from the optical density (OD) measurements, and pharmacokinetic parameters were estimated using WinNonLin ver. 6.2.0.495.

[8] = system: human colorectal cancer cell line Colo205; assay: Cell death activity upon co-treatment with TRAIL, Colo205; format: cell-based; details: Colo205, antibody as low as 10 ng/ml, TRAIL 0.5, 1, 10 ng/ml
Method: (§4) Antibody properties according to epitopes were analyzed in terms of cell death activity upon co-treatment with the constructed antibodies and TRAIL. In this test, the human colorectal cancer cell line Colo205 (ATCC, U.S.A.) and the human pancreatic cell line Miapaca-2 (ATCC, U.S.A.) were employed. The tumor cells were suspended at a concentration of 1×10^5 cells/ml and the suspensions were plated at 50 μl per well into 96-well culture plates, followed by incubation for 16-24 hours in a constant temperature and humidity chamber. Serial dilutions of the antibodies (0.1-10000 ng/ml) and TRAIL protein at determined concentrations (0.5, 1, 10 ng/ml) were applied in combination to the 96-well plates. After incubation for 48 to 72 hours at a constant temperature in a humidified condition, a resazurin solution (Invitrogen, U.S.A.) was added at an amount of 10 μl to per well. When the reaction reached a certain level after 1 to 2 hours, fluorescence was read at 590 nm using a spectrophotometer (Molecular Device). Cell viability was calculated as the percentage of relative fluorescence units (RFU) of a test substance-treated group (treated RFU) to the relative fluorescence units of a culture medium-treated group (untreated RFU) (Cell viability (%)=treated RFU/Untreated RFU×100).
(§5) Representative results are depicted in FIGS. 9a (Colo205) and 9b (Miapaca-2). […]

Human DR5 [9] = target: T1, Human DR5; assay: TRAIL competitive enzyme-linked immunosorbent assay; format: binding; details: 0.01-400 nM of TRAIL protein, absorbance at 405 nm
Method: In order to examine antigen-binding characteristics of the antibodies selected in Example 3, a TRAIL competitive enzyme-linked immunosorbent assay was conducted. ELISA plates were coated with 0.1 μg/ml human DR5 (R&D systems, U.S.A.) at 4° C. Thereafter, the plates were incubated with 0.01 nM-1440 nM of antibodies (D0, DA20, DA21, DA21, DA22, and DA23) together with 0.01-400 nM of TRAIL protein for 2 hours. After the plates were washed three times with PBST (0.1% bovine serum albumin and Tween-20 in PBS), HRP (horse radish peroxidase)-conjugated anti-human immunoglobulin Fc was added to each well and incubated for 1 hour. After three washes with PBST, color development was performed for 20 min with ABTS (Thermo, U.S.A.). When the color development reached to a certain level, the reaction was terminated with 1 N sulfuric acid. Absorbance at 405 nm was measured using a spectrophotometer (Molecular Device, U.S.A.) and is depicted in FIGS. 8a and 8b. The antibody AP disclosed in Example (7-1) was used as a control.

[10] = system: human pancreatic cell line Miapaca-2; assay: Cell death activity upon co-treatment with TRAIL, Miapaca-2; format: cell-based; details: Miapaca-2, antibody as low as 10 ng/ml, TRAIL 0.5, 1, 10 ng/ml
Method: as §4, §5

activity of caspase-3/7 (caspase-3/7 [1]): increase in the activity of casapse-3/7
Ka(1/Ms) (Human DR5 [2]): 1.21 × 10^06 1/Ms
Kd (Human DR5 [2]): 0.0698 nM
activity of caspase-3/7 (caspase-3/7 [3]): increase in the activity of casapse-3/7
activity of caspase-3/7 (caspase-3/7 [4]): increase in the activity of casapse-3/7
B1: DA29: humanized or deimmunized variant of parental clone D0; CDRs SEQ ID NO 1, 2, 7 / 4, 10, 13 (antibody, V domains shown)
VH: AVTLDESGGGLQTPGGGLSLVCKGSGFTFSSFNMLWVRQAPGKGLEWVAGIGKSDRYTGYGSAVKGRATISRDDGQSTARLQLNNLRAEDTGTYYCVKDAGSGCGSGGWTGACIDTWGHGTEVIVSS
VL: LTQPSSVSANLGGTVEITCSGGDSYAGSYYYGWYQQKAPGSAPVTVIYNNNNRPSNIPSRFSGSTSGSTATLTITGVQAEDEATYFCGSRDSSYVGIFGAGTTLTVL
apoptotic activity upon co-treatment with gemcitabine relative to each individual substance [5]: increased apoptotic activity
apoptotic activity upon co-treatment with gemcitabine relative to each individual substance [6]: increased apoptotic activity

Ka(1/Ms) (Human DR5 [2]): 6.96 × 10^05 1/Ms
Kd (Human DR5 [2]): 0.0403 nM
B2: DA23: humanized or deimmunized variant of parental clone D0; CDRs SEQ ID NO 1, 2, 9 / 4, 10, 13 (antibody, V domains shown)
VH: EVQLVESGGGLVQPGGSLRLSCAASGFTFSSFNMLWVRQAPGKGLEWVAGIGKSDRYTGYGSAVKGRFTISRDDSKSTVYLQMNSLRAEDTAVYYCVRDAGSPCGKGGWTGACIDTWGQGTLVTVSS
VL: DIQMTQSPSSLSASVGDRVTITCSGGDSYAGSYYYGWYQQKPGKAPKTLIYNNNNRPSGVPSRFSGSTSGTDFTLTISSLQPEDFATYYCGSRDSSYVGIFGQGTKVEIK
Cmax [7]: 195.8 µg/mL
t½ Terminal (2 d~14 d) [7]: 191 h
t½ initial (−1 d) [7]: 13.9 h
cell death activity in combination with TRAIL, compared to antibody alone [8]: higher cell death activity
antigen binding in the presence of TRAIL (Human DR5 [9]): maintained a certain level of antigen binding irrespective of TRAIL concentrations
cell death activity in combination with TRAIL, compared to antibody alone [10]: higher cell death activity
